This data set has as its target T1, caspase-3, P42574.
T1 chain: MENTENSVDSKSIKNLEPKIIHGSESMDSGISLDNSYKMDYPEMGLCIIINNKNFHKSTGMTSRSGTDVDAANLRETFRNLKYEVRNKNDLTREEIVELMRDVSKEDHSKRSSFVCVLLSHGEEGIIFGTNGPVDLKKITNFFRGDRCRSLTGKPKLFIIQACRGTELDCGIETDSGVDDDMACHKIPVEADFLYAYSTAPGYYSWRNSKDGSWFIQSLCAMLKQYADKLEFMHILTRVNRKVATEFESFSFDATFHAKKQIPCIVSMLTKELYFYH

B1: caspase-8 (217-479) (protein)
chain: SESQTLDKVYQMKSKPRGYCLIINNHNFAKAREKVPKLHSIRDRNGTHLDAGALTTTFEELHFEIKPHDDCTVEQIYEILKIYQLMDHSNMDCFICCILSHGDKGIIYGTDGQEAPIYELTSQFTGLKCPSLAGKPKVFFIQACQGDNYQKGIPVETDSEEQPYLEMDLSSPQTRYIPDEADFLLGMATVNNCVSYRNPAEGTWYIQSLCQSLRERCPRGDDILTILTEVNYEVSNKDDKKNMGKQMPQPTFTLRKKLVFPSD
Take B1: the “processing of 35S-labeled caspase-3 precursor by in vitro translated protein” value is reported as “In vitro translated Casper (192-480) could not process caspase-3, whereas in vitro translated caspase-8 (217-479) could”.

The values above are taken from patent publication US7528244.
